# Experimental data taken from patent publication US20230012273A1 (Boehringer Ingelheim, published 2023).
# T1: cynomolgus SIRPα (EGM_02252) extracellular domain + His-tag (cynomolgus monkey)
# T1 construct: SPR analyte; also called CySIRPα EGM_02252; cynoSIRPα; not shown: His-tag
# T1 chain: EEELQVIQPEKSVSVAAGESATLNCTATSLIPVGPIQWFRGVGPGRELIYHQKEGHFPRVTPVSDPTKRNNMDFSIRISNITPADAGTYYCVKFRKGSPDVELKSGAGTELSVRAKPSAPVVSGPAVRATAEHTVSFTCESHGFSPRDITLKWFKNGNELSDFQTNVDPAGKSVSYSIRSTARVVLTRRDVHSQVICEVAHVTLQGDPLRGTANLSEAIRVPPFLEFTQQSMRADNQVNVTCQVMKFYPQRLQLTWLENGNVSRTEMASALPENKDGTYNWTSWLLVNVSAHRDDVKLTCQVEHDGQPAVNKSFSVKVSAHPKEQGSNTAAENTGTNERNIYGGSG
# T2: cynomolgus SIRPβ1 (XP_005568598) extracellular domain + His-tag (cynomolgus monkey)
# T2 construct: SPR analyte; also called Cyno SIRPβ1 XP_005568598; cynoSIRPβ1; not shown: His-tag
# T2 chain: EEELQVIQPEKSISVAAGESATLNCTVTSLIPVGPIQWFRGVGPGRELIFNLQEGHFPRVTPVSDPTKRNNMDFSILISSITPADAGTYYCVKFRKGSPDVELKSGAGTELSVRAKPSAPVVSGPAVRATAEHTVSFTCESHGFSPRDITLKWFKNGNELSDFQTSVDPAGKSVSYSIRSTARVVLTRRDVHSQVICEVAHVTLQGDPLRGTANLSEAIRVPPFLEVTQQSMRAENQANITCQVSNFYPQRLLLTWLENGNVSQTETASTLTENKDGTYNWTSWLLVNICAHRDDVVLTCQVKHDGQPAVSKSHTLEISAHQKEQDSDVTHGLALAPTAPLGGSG
# T3: cynomolgus SIRPγ (XP_005568591) extracellular domain + His-tag (cynomolgus monkey, UniProt Q9P1W8 29-359 (human entry))
# T3 construct: SPR analyte; also called Cyno SIRPγ XP_005568591; cynoSIRPγ; not shown: His-tag
# T3 chain: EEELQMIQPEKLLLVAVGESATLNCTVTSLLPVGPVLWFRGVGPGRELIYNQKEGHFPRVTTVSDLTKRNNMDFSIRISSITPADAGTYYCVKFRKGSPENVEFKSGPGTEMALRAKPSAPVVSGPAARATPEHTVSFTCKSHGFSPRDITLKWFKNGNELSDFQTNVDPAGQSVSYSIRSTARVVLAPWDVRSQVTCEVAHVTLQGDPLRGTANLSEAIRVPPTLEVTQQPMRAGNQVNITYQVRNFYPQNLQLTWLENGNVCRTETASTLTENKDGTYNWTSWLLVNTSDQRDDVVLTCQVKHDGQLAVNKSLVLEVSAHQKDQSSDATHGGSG
# T4: cynomolgus SIRPβ1v3 (XP_005568593) extracellular domain + His-tag (cynomolgus monkey)
# T4 construct: SPR analyte; also called Cyno SIRPβ1v3 XP_005568593; cynoSIRPβ1v3; not shown: His-tag
# T4 chain: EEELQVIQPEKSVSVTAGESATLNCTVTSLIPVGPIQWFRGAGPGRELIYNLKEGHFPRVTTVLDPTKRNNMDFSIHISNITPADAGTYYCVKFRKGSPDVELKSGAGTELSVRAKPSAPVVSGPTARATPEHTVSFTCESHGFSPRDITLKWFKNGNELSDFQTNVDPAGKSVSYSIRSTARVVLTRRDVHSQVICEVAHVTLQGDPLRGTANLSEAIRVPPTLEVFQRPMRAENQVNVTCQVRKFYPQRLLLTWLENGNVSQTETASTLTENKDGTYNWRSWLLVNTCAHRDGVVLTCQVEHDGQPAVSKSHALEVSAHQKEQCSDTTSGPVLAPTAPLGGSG
# Columns and labels:
# [1] = biological target: T1, cynomolgus SIRPα (EGM_02252) …; test: SPR
# Procedure: (§1) The binding affinity of anti-SIRPα antibodies to the various SIRPα analytes is determined by surface plasmon resonance (SPR) using a ProteOn XPR36 (Bio-Rad). The running buffer for this experiment and all dilutions (except where stated) are done in 1×HBS-EP+. […] The sensorchip is deactivated with 1M ethanolamine HCl for 420 sec at a flowrate of 10 μl/min.
# (§2) The analyte is injected over the captured antibody for 300 sec at a flowrate of 30 μl/min. The dissociation is done for 600 sec. Two-fold serial dilutions of each SIRP protein (Extracellular Domain+His-Tag) are injected as analyte with the highest concentrations indicated in table 36 below.
# [2] = biological target: T2, cynomolgus SIRPβ1 (XP_005568598) …; test: SPR
# Procedure: as §1, §2
# [3] = biological target: T3, cynomolgus SIRPγ (XP_005568591) …; test: SPR
# Procedure: as §1, §2
# [4] = biological target: T4, cynomolgus SIRPβ1v3 (XP_005568593) …; test: SPR, antibody captured, ECD-His analyte
# Procedure: as §1, §2
binding result [1],binding result [2],binding result [3],Kd [4],Binder
no binding (tested: 1000 nM),no binding (tested: 1000 nM),no binding (tested: 1000 nM),20.5 nM,"Antibody E13 (antibody, human IgG1, kappa, L234A L235A, V domains shown) VH: QVQLQESGPGLVRPSETLSLTCTVSGGSIRNYYWSWIRQPPGKGLEWIGFIYYTGRTFYNPSLKSRVTISLDMSINQFSLKMTSVTAADTAVYYCARVRAYSGIGLDGTDVWGQGTTVTVSS VL: DIVMTQSPLSLPVTPGEPASISCKSSQSLLYSNGYAYLDWYLQRPGQSPQLLIYQGSNRASGVPDRFSGSGSGTDFTLKISRVEAEDVGVFYCMQALQTPLTFGGGTKVEIKR"
no binding (tested: 1000 nM),no binding (tested: 1000 nM),no binding (tested: 1000 nM),27 nM,"Antibody E17 (antibody, human IgG1, kappa, L234A L235A, V domains shown) VH: QVQLQESGPGLVRPSETLSLTCTVSGGSIRNYYWSWIRQPPGKGLEWMGFIYDNGRTFYNPSLKSRVTISLDMSMNQFSLKMTSVTAADTAVYYCARVRAYSGIGLDGTDVWGQGTTVTVSS VL: DIVMTQSPLSLPVTPGEPASISCKSSQSLLYSNAYNYLDWYLQRPGQSPQLLIYLGSNRASGVPDRFSGSGSGTDFTLKISRVEAEDVGVYYCMQALQTPLTFGGGTKVEIKR"
no binding (tested: 1000 nM),no binding (tested: 1000 nM),no binding (tested: 1000 nM),25 nM,"Antibody E19 (antibody, human IgG1, kappa, L234A L235A, V domains shown) VH: QVQLQESGPGLVRPSETLSLTCTVSGGSIRNYYWSWIRQPPGKGLEWIGFIYYTGRTFYNPSLKSRVTISLDMSKNQFSLKMTSVTAADTAVYYCARVRAYSGIGLDGTDVWGQGTTVTVSS VL: DIVMTQSPLSLPVTPGEPASISCKSSQSLLYSNGYAYLDWYLQRPGQSPQLLIYQGSNRASGVPDRFSGSGSGTDFTLKISRVEAEDVGVFYCMQALQTPLTFGGGTKVEIKR"
no binding (tested: 1000 nM),no binding (tested: 1000 nM),no binding (tested: 1000 nM),51.9 nM,"Antibody E14 (antibody, human IgG1, kappa, L234A L235A, V domains shown) VH: QVQLQESGPGLVRPSETLSLTCTVSGGSIRNYYWSWIRQPPGKGLEWIGFIYYNGRTFYNPSLKSRVTISLDKSKNQFSLKMTSVTAADTAVYYCARVRAYSGIGLDGTDVWGQGTTVTVSS VL: DIVMTQSPLSLPVTPGEPASISCKSSQSLLYSNAYNYLDWYLQRPGQSPQLLIYLGSNRASGVPDRFSGSGSGTDFTLKISRVEAEDVGVYYCMQALQTPLTFGGGTKVEIKR"
no binding (tested: 1000 nM),no binding (tested: 1000 nM),no binding (tested: 1000 nM),25.8 nM,"Antibody E15 (antibody, human IgG1, kappa, L234A L235A, V domains shown) VH: QVQLQESGPGLVRPSETLSLTCTVSGGSIRNYYWSWIRQPPGKGLEWIGFIYYTGRTFYNPSLKSRVTISLDMSINQFSLKMTSVTAADTAVYYCARVRAYSGIGLDGTDVWGQGTTVTVSS VL: DIVMTQSPLSLPVTPGEPASISCKSSQSLLYSNGYAYLDWYLQRPGQSPQLLIYLGSNRASGVPDRFSGSGSGTDFTLKISRVEAEDVGVYYCMQALQTPLTFGGGTKVEIKR"
no binding (tested: 1000 nM),no binding (tested: 1000 nM),no binding (tested: 1000 nM),27.8 nM,"Antibody E18 (antibody, human IgG1, kappa, L234A L235A, V domains shown) VH: QVQLQESGPGLVRPSETLSLTCTVSGGSIRNYYWSWIRQPPGKGLEWIGFIYYTGRTFYNPSLKSRVTISLDMSKNQFSLKMTSVTAADTAVYYCARVRAYSGIGLDGTDVWGQGTTVTVSS VL: DIVMTQSPLSLPVTPGEPASISCKSSQSLLYSNGYAYLDWYLQRPGQSPQLLIYLGSNRASGVPDRFSGSGSGTDFTLKISRVEAEDVGVYYCMQALQTPLTFGGGTKVEIKR"
